Experimental data reported in WO2021173674A1.

What was measured:
[1] = molecular target: HLA-A*02 complexed with EPS8L2 339-347 (…) on cells; test: cell-based or functional assay
[2] = molecular target: HLA-A*02 complexed with MAGE-A12 112-120 (…) on cells; test: cell-based or functional assay

A118T TCR (MAGE-A3 112-120 clinical TCR)
EC50 in primary human T cell cytotoxicity on peptide-loaded MCF7 cells, against the on-target EC50 [1]: < 10 fold | fold decrease in potency in Jurkat/T2 cell assays, against the on-target MAGE-A3 peptide [1]: 500 fold | potency in Jurkat/T2 cell assays, against the on-target MAGE-A3 peptide [2]: 10 fold
